Measurements: paper PMC4967814

Biological target: each of 12 IFNα subtypes and IFNω (ISRE-luciferase reporter assay, median IC50)

median IC50 of inhibition of the IFN-induced ISRE-luciferase reporter response in transfected HEK293 cells: 0.0109 µg/mL
B1: rontalizumab, in-house-generated recombinant (antibody, INN chains, looked up, V domains shown)
VH: EVQLVESGGGLVQPGGSLRLSCATSGYTFTEYIIHWVRQAPGKGLEWVASINPDYDITNYNQRFKGRFTISLDKSKRTAYLQMNSLRAEDTAVYYCASWISDFFDYWGQGTLVTVSS
VL: DIQMTQSPSSLSASVGDRVTITCRASQSVSTSSYSYMHWYQQKPGKAPKVLISYASNLESGVPSRFSGSGSGTDFTLTISSLQPEDFATYYCQHSWGIPRTFGQGTKVEIKR
